This note sets out measurements from patent publication US20200095301A1 (published 2020).

The target of experiment [1] is human IL-13Rα1 ectodomain, biotinylated (human) (UniProt P78552). The experiment can be described thus: SPR; kinetic. Conditions: ligand.
Experiment [2] has the same target. The experiment is described as follows: SPR; equilibrium. Conditions: ligand. Background: In SPR one partner is held on a chip, and binding of the other changes the refractive index at the surface.
In experiment [3] the target is T1, human IL-13Rα2, biotinylated (human, UniProt Q14627 27-343, biotinylated (site not stated)).
T1 chain: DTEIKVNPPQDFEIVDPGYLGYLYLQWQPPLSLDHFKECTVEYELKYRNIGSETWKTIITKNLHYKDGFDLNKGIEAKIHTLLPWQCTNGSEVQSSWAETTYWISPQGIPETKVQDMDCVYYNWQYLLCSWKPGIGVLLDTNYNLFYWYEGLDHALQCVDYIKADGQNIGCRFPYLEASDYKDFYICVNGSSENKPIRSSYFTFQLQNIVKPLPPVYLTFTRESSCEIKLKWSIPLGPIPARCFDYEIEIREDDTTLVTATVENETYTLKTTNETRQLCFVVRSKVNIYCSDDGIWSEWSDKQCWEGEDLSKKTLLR
The experiment is described as follows: SPR; kinetic.

human IL-13Rα1 ectodomain, biotinylated (human), sequence (P78552 other isoform, or with tags, fused parts or gaps): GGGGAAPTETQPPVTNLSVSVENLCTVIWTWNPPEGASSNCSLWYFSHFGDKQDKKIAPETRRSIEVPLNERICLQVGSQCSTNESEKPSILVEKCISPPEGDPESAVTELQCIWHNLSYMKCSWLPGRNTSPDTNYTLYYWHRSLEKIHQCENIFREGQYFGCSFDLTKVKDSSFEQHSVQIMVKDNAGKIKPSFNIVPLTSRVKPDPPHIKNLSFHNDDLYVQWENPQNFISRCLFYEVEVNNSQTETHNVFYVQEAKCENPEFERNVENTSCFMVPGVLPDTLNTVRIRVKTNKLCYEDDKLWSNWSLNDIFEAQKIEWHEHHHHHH

In turn, “IL-13 variant B4 [R11S, V18I, R86K, D87G, T88S, K89M, L101Y, K104R, K105T]” gave a Kd in experiment [1] of 18 nM.
“IL-13 superkine D7 [L10A, V18F, R86K, D87K, K89R, L101I, K104R, R108K]” gave a Kd in experiment [2] of 4100 nM.

B1: IL-13 superkine D7 [L10A, V18F, R86K, D87K, K89R, L101I, K104R, R108K] (ligand)
chain: PGPVPPSTAARELIEELFNITQNQKAPLCNGSMVWSINLTAGMYCAALESLINVSGCSAIEKTQRMLSGFCPHKVSAGQFSSLHVKKTRIEVAQFVKDLLIHLRKLFKEGQFNHHHHHH
For the molecule B1, the affinity in experiment [3], expressed as Kd, was 0.003 nM.

The term Kd denotes the free concentration of one partner at which half of the binding sites on the other are occupied at equilibrium, for simple one-to-one binding.
